B1: mRNA-splicing (parent)
chain: AGUUGCUGCUGGGAGCUCCAGCACAGUGAAAUGGACAGAAGGGCAGAGCAA

Variants of: B1
Assay: exon inclusion enrichment index; higher = more inclusion; WT1 exon 5 minigene, HEK293

Variant	exon inclusion enrichment index
AGUUCACACAGGGAGCUCCAGCACACUGAAAUGGACAGAAGGGCAGAGCAA [G5C C6A U7C G8A U10A G26C]	0.141
AGUUCGCGCCGGGAACUCCAGCACAGUGAAAUGGACAGAAGGGCAGAGCAA [G5C C6G U7C U10C G15A]	2.71
AGUUAUAUAUGGGAGCUCCAGCACAGUGAAAGGGACAGAAGGGCAGAGCAA [G5A C6U U7A G8U C9A U32G]	0.0013
AGUUCGCGCCGGGGUCUCCAGCACAGUGAAAUGGACAGAAGGGCAGAGCAA [G5C C6G U7C U10C A14G G15U]	1.21
AGUUUAUUUUGGGAGCUCCAGCACAGUGAAAUGGACAGAAGGGCAGAGCAA [G5U C6A G8U C9U]	0.0752
AGUUAGUUUUGGGAGCUCCAGCACAGUGAAAUGGACAGAAGGGCAGAGCAA [G5A C6G G8U C9U]	0.00331
AGUUAGGGAUGGCUGCUCCAGCACAGUGAAAUGGACAGAAGGGCAGAGCAA [G5A C6G U7G C9A G13C A14U]	0.0025
AGUUCACACAGGGAGCUCCAGCACAGUGCUAUGGACAGAAGGGCAGAGCAA [G5C C6A U7C G8A U10A A29C A30U]	0.0384
AGUUGACGACGGUGGCUCCAGCACAGUGAAAUGGACAGAAGGGCAGAGCAA [C6A U7C C9A U10C G13U A14G]	2.11
AGUUCUUCAUGGGAGCUCCAGCACAGUGAAAUGGACAGAAGGGCAGAGCAA [G5C C6U G8C C9A]	1.7
AGUUUCUUUUGGGAGCUCCAGCACAGUGAAAUGGACAGAAGGGCUUAGCAA [G5U G8U C9U A45U G46U]	0.0271
AGUUUCUUUUGGGAGCUCCAGCACAGUGGCAUGGACAGAAGGGCAGAGCAA [G5U G8U C9U A29G A30C]	0.035
AGUUCGCGCCGGGAUAUCCAGCACAGUGAAAUGGACAGAAGGGCAGAGCAA [G5C C6G U7C U10C G15U C16A]	3.58
AGUUCGCGCCGGGAGCUCCAGCACAGUGAAAUGGACAGAAGAACAGAGCAA [G5C C6G U7C U10C G42A G43A]	4.65
AGUUCGCGCCGGGAGCUCCAGCACAGUGAAAUGGACAGAAGACCAGAGCAA [G5C C6G U7C U10C G42A G43C]	5.39
AGUUCACACAGGGAGCUCCAGCACAGUGAAAUGGACAGAAGCCCAGAGCAA [G5C C6A U7C G8A U10A G42C G43C]	0.652
AGUUGCUGCUGGGAGCUCCAGCACAGUGAAAUGGACAGAAGCCCAGAGCAA [G42C G43C]	0.757
AGUUCACACAGGGAGCUCCAGCACAGUGAAAUGGACUCAAGGGCAGAGCAA [G5C C6A U7C G8A U10A A37U G38C]	0.0672
AGUUACCACCGGGAUGUCCAGCACAGUGAAAUGGACAGAAGGGCAGAGCAA [G5A U7C G8A U10C G15U C16G]	1.74
AGUUCACACAGGGAGCUCCAGCACAGUGAAAUGCACAGAAGGGCAGAGCAA [G5C C6A U7C G8A U10A G34C]	0.0202
AGUUUCUUUUGGGAGCUCCAGCACAGUGAAAUGGACAGAAGGGCGCAGCAA [G5U G8U C9U A45G G46C]	0.262
AGUUCACACAGGGAGCUCCAGCACAGCCAAAUGGACAGAAGGGCAGAGCAA [G5C C6A U7C G8A U10A U27C G28C]	0.163
AGUUACCACCGGGAGCUCCAGCACAGUGAAAUGAUCAGAAGGGCAGAGCAA [G5A U7C G8A U10C G34A A35U]	0.813
AGUUAUAUAUGGGAGCUCCAGCACAGUGAAAUGGACAGAAGGGCAUAGCAA [G5A C6U U7A G8U C9A G46U]	0.0405
AGUUCACACAGGGAGCUCCAGCACAGUGAAAUGGACAAUAGGGCAGAGCAA [G5C C6A U7C G8A U10A G38A A39U]	0.0079
AGUUCACACAGGGAGAACCAGCACAGUGAAAUGGACAGAAGGGCAGAGCAA [G5C C6A U7C G8A U10A C16A U17A]	0.05

Variant	exon inclusion enrichment index
AGUUGAAGAAGGGAGCUCCAGCACCCUGAAAUGGACAGAAGGGCAGAGCAA [C6A U7A C9A U10A A25C G26C]	1.25
AGUUUCUUUUGGGAGCUCCAGCACAGUGAAAUGGACAGAAGGAGAGAGCAA [G5U G8U C9U G43A C44G]	0.749
AGUUCGCGCCGGGAGCUCCAGCACAGUGAAAUGGUCAGAAGGGCAGAGCAA [G5C C6G U7C U10C A35U]	1.25
AGUUAUAUAUGGGAGCUCCAGCACAGUGAAAUGGACAGAAGGGCAGUCCAA [G5A C6U U7A G8U C9A A47U G48C]	0.0371
AGUUCUUCUCGGGAGCUCCAGCACAGUGAAAUGGACAGCCGGGCAGAGCAA [G5C C6U G8C C9U U10C A39C A40C]	2.43
AGUUCGCGCCGGGAGCUCCAACACAGUGAAAUGGACAGAAGGGCAGAGCAA [G5C C6G U7C U10C G21A]	2.93
AGUUGACGACGGGAGCUCCAGCACAGUGAAAUGGACAGAAGGGGAGAGCAA [C6A U7C C9A U10C C44G]	4.07
AGUUGACGCGGGGAGCUCCAGCACAGUGAAAUGGACAGAAGGGCAGAGCAA [C6A U7C U10G]	1.66
AGUUCUUCUCGGGAGCUCCAGCACAGUGAAAUGGACACCAGGGCAGAGCAA [G5C C6U G8C C9U U10C G38C A39C]	1.84
AGUUCUUCGCGGGAGCUCCAGCACAGUGAAAUGGACAGAAGGGCAGAGCAA [G5C C6U G8C C9G U10C]	3.48
AGUUAGGGAUGGGAGCUCCAGCACAGUGAAAUGGACCGAAGGGCAGAGCAA [G5A C6G U7G C9A A37C]	0.00434
AGUUCACACAGGGAGCUCCAGCACAGUGAAAUGGAACGAAGGGCAGAGCAA [G5C C6A U7C G8A U10A C36A A37C]	0.146
AGUUGCUGCUGGGAGCUCCAGCACAGUGAAAUGGACAGAAGGGCCCAGCAA [A45C G46C]	0.068
AGUUGCUGCUGGGAGCUCCAGCACAGUGAAAUGGACGAAAGGGCAGAGCAA [A37G G38A]	0.201
AGUUAGGGAUGGGAGCUCCAGCACAGGUAAAUGGACAGAAGGGCAGAGCAA [G5A C6G U7G C9A U27G G28U]	0.0007
AGUUGACGACGGGAGCUCCAUGACAGUGAAAUGGACAGAAGGGCAGAGCAA [C6A U7C C9A U10C G21U C22G]	3.54
AGUUAUAUAUGGGAGCUCCAGCACAGCGAAAUGGACAGAAGGGCAGAGCAA [G5A C6U U7A G8U C9A U27C]	0.399
AGUUUCUUGCGGGAGCUCCAGCACAGUGAAAUGGACAGAAGGGCAGAGCAA [G5U G8U C9G U10C]	0.741
AGUUGACGACGGGAGCUCCAGCACAGUGAAAUGAACAGAAGGGCAGAGCAA [C6A U7C C9A U10C G34A]	2.27
AGUUGAAGAAGGGAGCUCCAGCACAUCGAAAUGGACAGAAGGGCAGAGCAA [C6A U7A C9A U10A G26U U27C]	2.22
AGUUAUAUAUGGGAGCUCCAGCACAGUGAAAUGGACUCAAGGGCAGAGCAA [G5A C6U U7A G8U C9A A37U G38C]	0.0673
AGUUUCUUUUGGGAGCUCCAGCACAGUGAAAUGGACAGACUGGCAGAGCAA [G5U G8U C9U A40C G41U]	0.079
AGUUUCUCUCGGGAGCUCCAGCACAGUGAAAUGGACAGAAGGGCAGAGCAA [G5U G8C C9U U10C]	0.934
AGUUGACGACGGGAGCUCCAGCACAGUGAACUGGACAGAAGGGCAGAGCAA [C6A U7C C9A U10C A31C]	3.96
AGUUCACACAGGUUGCUCCAGCACAGUGAAAUGGACAGAAGGGCAGAGCAA [G5C C6A U7C G8A U10A G13U A14U]	0.0352

— the RNAGym collection of RNA variant scans (doi:10.1101/gr.219683.116)
